Experimental data from paper PMC6640702, “IgG Charge: Practical and Biological Implications” (Antibodies, 2019).

Key:
[1] = target: Fc fragment of human IgG4 (IdeS-cleaved; identical for IgG4 and IgG4Pro) (human); experiment: AUC; sedimentation velocity, absorbance 280 nm, 20 °C, 40,000 rpm, three concentrations in 1:3 dilutions from 0.5 mg/mL (0.5, 0.167, 0.056 mg/mL); Figure 2 in 10 mM sodium acetate, 50 mM NaCl, pH 5.0; oligomer told from sw against ~50 kDa
[2] = target: the molecule itself; experiment: as above

| stoichiometry N [1] | Molecule | stoichiometry N [2] |
| --- | --- | --- |
| 2 | Fc fragment of human IgG4 (IdeS-cleaved; identical for IgG4 and IgG4Pro) (domain or fragment) | – |
| – | Fc fragment of human IgG2 (IdeS-cleaved) (domain or fragment, asparagine (N)-linked glycoforms G0F, G1F, G2F (told of the intact IgGs)) GPSVFLFPPKPKDTLMISRTPEVTCVVVDVSHEDPEVQFNWYVDGVEVHNAKTKPREEQFNSTFRVVSVLTVVHQDWLNGKEYKCKVSNKGLPAPIEKTISKTKGQPREPQVYTLPPSREEMTKNQVSLTCLVKGFYPSDIAVEWESNGQPENNYKTTPPMLDSDGSFFLYSKLTVDKSRWQQGNVFSCSVMHEALHNHYTQKSLSLSPGK | 2 |
